US6942852

Target: CCR5 chemokine receptor (human) (UniProt P51681)
Test: cell-based or functional assay

Chain of UniProt P51681 (P51681 whole entry): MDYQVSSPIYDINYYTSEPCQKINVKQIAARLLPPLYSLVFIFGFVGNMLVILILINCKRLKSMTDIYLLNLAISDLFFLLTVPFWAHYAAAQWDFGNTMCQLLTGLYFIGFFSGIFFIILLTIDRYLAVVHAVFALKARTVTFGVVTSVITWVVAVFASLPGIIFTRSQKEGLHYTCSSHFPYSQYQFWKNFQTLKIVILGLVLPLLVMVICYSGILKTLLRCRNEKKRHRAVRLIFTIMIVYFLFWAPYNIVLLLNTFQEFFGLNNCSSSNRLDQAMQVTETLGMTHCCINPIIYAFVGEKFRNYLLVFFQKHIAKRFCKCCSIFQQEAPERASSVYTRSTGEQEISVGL

“aminooxypentane-RANTES (2-68) (from UniProt P13501 25-91) (ligand)” was tested, and the inhibition of replication of dual-tropic HIV-1 89.6 in vitro (p24 ELISA) was 50% and the inhibition of replication of primary dual-tropic HIV-1 isolates from patients in vitro (p24 ELISA) was 80 to 90%.
For “n-nonanoyl-RANTES (2-68) (from UniProt P13501 25-91) (ligand)”, the potency at preventing infection of PBMC with R5 HIV-1 SF162, relative to AOP-RANTES was 3 fold.
